Data reported in paper PMC4754353.

Target: Nrp1 immobilized on the BLI biosensor (UniProt Q9QWJ9)
Assay: BLI

human glycyl-tRNA synthetase P234KY mutant (P234KY-GlyRS^CMT2D), non-tagged (enzyme)
Kd: 209 nM

human glycyl-tRNA synthetase L129P mutant (L129P-GlyRS^CMT2D), non-tagged (enzyme)
Kd: 29.8 nM
